Source: the DeepSol protein solubility set

Assay: soluble on expression in E. coli; label from the status in PepcDB or PDB records

Sequence | soluble on expression in E. coli
MFWVFLVRHGEAYPEEVDPQRPLTEKGRKDTEKIAKALKNFGVKPELIYTSPKLRAKQTAKIIANILGVEKIRETELLLPNTDPKETSKLIDGKNVVLCGHLPNLARLFSLLYLSEDNERRVNLSTSGALVLKWKDFWVLELLLEPSVL | not soluble
MGSDKIHHHHHHMGYVAVRGGSEAISRAEELVTCLRLLGGSTPLQLPQIRDQLRHAVSRAMHEGALYAPLLAALALKQAEGDSIEAAFLLRAYRTTLPRVMASLPASGRDISCLRRISASFKDIPGGQILGPASDYLIRLLQPDLAHETIVDVARAAEQYAALVEKGGIRSGEWGRFPKVADYMRQEQMIVDIPADSEETEPFDITREPLVFPCPRSARLQALMQADTGSLMCLAYSSVRGYGDAHPALVELRYGYLAIQVAHPLTGEPITIGEIEVTETEVASKAHSVTSRTGTPRFNVGYGFAFGQSELKTMSMAILDSVLTQARAGSLAGESGPAADEEFVLLHTDGIEASGFVAHFKLPHYVTFAADLSVLDRARDHHAQQQSRLHQLVDQALTE | not soluble
MAAEGDFLMRYRAVSNKLKKRFLRKPNVAEASEQFGQLAKELKQQDCPQYAAFCNLAMARCEQTLFNAPGEALALTDAARLFLASEQETRALRAPGFDENMQAAMNCYSFAIKVYIEMNQPVMAARLSLELGNALKEMNRPGEAIIHFQRAAELQIQMPIEALLSLWEMASCKILTRDYDGALAVLSEMQHMCQERGLQLPGTNTPVGAFMDIIAKCEISRVLLLMLLEPPPQKLLPEHAQTLERYAWESFDSHSQMACQEKDTESLKALQTELW | not soluble
MRLTGKQTWVFQNDIYVNATGTAVGPKEAEGPLGKKFDISYGDLHCGEENWELAERRLMSDSIQQAVQKGNIKTSQIDFFLAGDLLNQTVTANYVARKWGIPFLGMFSACATSMETLAVGSAFIDGGFANRVLATVSSHNATAERQFRYPTEYGGQKPGTANSTVTGAGSILISNEKSAIKITSATIGKVQDLGITNPLDMGAAMAPAAAHTIQQHFEDLRRSADDYDLIVTGDLSAVGTPIAKQLLLEEGYDLGHIYNDCGLMIYESSQEEVFAGGSGCACSAVVTYGHLLHEMQKGNLQRIFVVATGALLSPMMMQQKETIPTIAHGVVFERVKGELEHHHHHH | soluble
MTIEEIARIVEGEILCGNKDLNIERAVATDLMSDVLAFAEPNVLLITGLHSPQAVRTAMVVGIPAVLFVRKRDIPETIVNFAKECNITVLATNLSMFETCGRLYMNGLKPVRRAIE | not soluble
MGSDKIHHHHHHMHSKTFGDVSIDEMVSRIKEFILKDNNCNYKITIGTDSQNKNLTKVVVVVAIHRIGSGGIFFYDIKHVHKISNVRQKIYYETALSLELASKVSHAFAEANIQEDIEIHADIGSNRKGKTYPLINEITGWITGEGYKYQIKPYSYAASCIADKISK | not soluble
MTGPEPVPAGPPPDPTPPRRAGSVWAHVGQHFTEEAFDIVVIGAGRMGAACAFYLRQLAPGRSLLLVEEGGLPNEEGATILAPGVWTAQDIPAGQEAQAEWTREQLLGALGSGKTLEVEDRPLLHLLPAGEGSGLTPTLDALADFPEALALLDPARLPVARVDPRALTYRPGSLALLAAQQAIGQGAGLLLNTRAELVPGGVRLHRLTVTNTHQIVVHETRQIRAGVIIVAAGAAGPALVEQGLGLHTRHGRAYRQFPRLDLLSGAQTPVLRASGLTLRPQNGGYTLVPAIHHRDPHGYHPAGGSLTGVPTGLRRELLEDLVGLMDAVPALAGEGLELGRSSADVPGAWLALPGGRPDAPPQAEELAPGLHLLLGGPLADTLGLAAAHELAQRVSASLEHHHHHH | soluble
MSLTYINKEKVIKNLSYAIYLLKKMNFTLIPEVGSNIAESLPFPKDFKDVAALTGRIIKNKLGGFYIVGDIEFGASEHIAKIILSASKFNPEIRACMNIKYDGGLIKLLKDKFAVSSFDRKEEPPNVSTMEWGTKIACEKFGGVPDIIYDRGGEGKEPMIRVLGRDAIEVVKKVEVIQKIYNTLEGHHHHHH | soluble
MSLKAIVYKGPKMLEVVEIDKPIPKEGQVLVKVNRAGICGGDLGIYKGTHPRAKAPLVFGHEFSGVVEEDGKIFKKGTKVTVNPIYSCGDCVPCNSGDQHVCNTLRLVGIDRDGAMSEYVVVDENKLYELGDEMSDELGALIEPIAVAVHSVREPGYKPGDNAVVFGGGPIGLAIAFVLKKFGCTNLTIIEADDKRIAMGKDFGFDLRDAKGLDLEALKAEKTGGNGFDFVFDCAGVEPVAAQLIKASKVRGKIVIVAGYKTPTMFPVNEGMFKEVAFEFVRVYRDKDYEIAVELAKDEPMFEKLVTHVLPVEQAQEGFDLLLTPGTGAMKVLFKEGHHHHHH | not soluble
MGSDKIHHHHHHMKDWWQATFPNGRQTLIITDAKGYPVEISYGEKGKGKPLILLHGMGSWSYNWRHSVTELSKYFRVICFDAKGFGFSEKPLSRREHNGHQVIEFQRIIQALCDEPAVIVAESLGGLVALALAQENPQLIGQLVVVNVPVFAKRLPHWAMGLLAQTPLEIIQTIDSLRLAYFFAPLLREIMAIERRGVLFDPSILTKEDVYWITYPFIEFPGTLVKVAEELQIAAREIENWQADKPNMLTKIQNKLSIIKCPTLVLWGDQDSWFPATHGEKLHQHIPNSKLKILSNCYHDASTGASKELNAAILEFLRDGNTVLRSLDS | not soluble
MGSDKIHHHHHHMDINTKNLKKNAFRVTKRRGITASRIRVPGGHLEAKFLSMIQNIAENYGDGSVHITSRQGFEIPGIKFEDMPKVNELLQPIIEGLNINQETALQGYSASGTRNITACVGNRVCPYGCYDTTSFAQRIEKAVFPHDLHFKIALTGCPNDCAKVRMHDFGIMGMTEPHYESDTCVSCGACVKVCKKKSVGALSAVNYKVVRRGEKCIGCGECVLKCPTGAWTRSEKTYYRLTLLGRTGKKNPRLGEDFIKWVDEDSIIKIILNTYDYVTKYIDPNAPGGKEHIGYIVDRTGFEEFKKWALKDVKLPSIAEVYTPIYWNGIKY | not soluble
MKLLDHKLSLLEITDEEKSDEIILNLSRNVKKDLEDIVVANVSMENVLVMNIKVPPTLNKQNAVEYATMEISRNLGILPEQLVVAPLDIRGGEGLFFVSKVDQVKSFVTDLMKKEFPETDVVIPDIVKYLEVFEFYFGKRLKGTS | soluble
MGSDKIHHHHHHMTNQIKIAVIGVGRWGVHLLRNFLAHPQVDVVAVVDPHPERLAAIKQQFNLDENVVLTTQWEDLKKVPGLTGVAIATPATTHYALIKDSLQQGYHVLAEKPLTLDPAECRELCQLAEQHHLILMVDHTYLFHPAVEQGQTVVQAGKLGDLRYGYATRTHLGPVRQDVDALWDLAIHDIAIFNAWLGQIPVKVQATGTVWLQGAGEQGSREAEGKKDTNFPLPQGLADLVWLTLTYPDGFQAYIHLCWLNPDKQRRLGIVGSLGSLIFDEMSRSSPLTLLHGEFEQQGNHFIPVNQKQVVLELEPGEPLGRVCSCFVDSILNNTPSEVSSGWVGTQLVEILAALTVSLEQGGQPVFLNNCSQV | not soluble
MGHHHHHHSHMLFIKFIHLEVFSMPERAIARHEVREIEQRHTMDGPRQDATLDEEEDMVIIYNRVPKTASTSFTNIAYDLCAKNKYHVLHINTTKNNPVMSLQDQVRFVKNITSWKEMKPGFYHGHVSYLDFAKFGVKKKPIYINVIRDPIERLVSYYYFLRFGDDYRPGLRRRKQGDKKTFDECVAEGGSDCAPEKLWLQIPFFCGHSSECWNVGSRWAMDQAKYNLINEYFLVGVTEELEDFIMLLEAALPRFFRGATELYRTAPDTATPSHRHGPICGSKSISSLLVKVSPVCKDSHCLGKCSRNGLSAV | not soluble
MKNWLAYINSLHSREIDLGLSRITSLAEKLSLNNFACPVVTVAGTNGKGSVVKSLESIYLAAGYKVAAYTSPHLLQFNERLRLNGEPATDELFIEAFKFIEDNRNHQPLSFFEFTTLAIFYICKKQNLDILLLEVGLGGRLDAVNIVEPDVAVITTIDIDHTDWLGEDRESIGREKAGIIRRHKPVIGGDPNLPNSVYEQVHLLEAPFYQLEKDFFAVSTKENWQWQGPTQDYQGLPLPSLKIENIATSLMVIHCLQSQLPVSQHSLIAGIKNAVLPGRFEWIQTPAPIVFDVAHNPQATAYLSEQLRKTDHAGRTLGVVGMLRDKDIPGALKPMLPCIDQWYAGTLSESRGATSANLQNVLSELQVENCYNFDSVADAFKKAVEDCRPQDRIVVFGSFYTVAMAKEVLLGGENGN | soluble
